From US20240058478A1, “FOLATE RECEPTOR-TARGETED CONJUGATES, COMPOSITIONS, AND DELIVERY TO THE CENTRAL NERVOUS SYSTEM” (PURDUE RESEARCH FOUNDATION, priority 2021, published 2024)

What was measured:
[1] = system: folate receptor-positive cells; test: FRES uptake in SCI: NIR imaging of transverse spinal cord sections, conjugate vs unconjugated dye; format: in vivo, Sprague Dawley rats; conditions: for NIR signal in the spinal cords: SCI rats, injected day 7 after injury, imaged day 8, conjugate vs unconjugated NIR dye
Procedure: Adult male Sprague Dawley rats were given a moderate grade SCI. The rats were injected with OTL38 or unconjugated NIR dye on day 7 after injury. On day 8, the spinal cords were removed and imaged for NIR signal.
FIGS. 11A-11B show transverse spinal cord sections of the rostral portions (FIG. 11A) and epicenters (FIG. 11B) of a rat with SCI and injected seven days after injury with OTL38. […] The results are shown in FIG. 11D, which is a bar graph of mean fluorescence intensity vs. rostral portion and epicenter showing OTL38 uptake (students t-test, **p<0.01).

[2] = molecular target: T1, folate receptors on cells of the choroid plexus (Mus musculus, UniProt P35846); test: Transport of folate conjugates across blood-cerebrospinal fluid barrier: NIR imaging of brain/choroid plexus; format: in vivo, B6 male mice
T1 construct: the uptake of OTL38 is mediated by folate receptors on cells of the choroid plexus; from tissue; host or cells: choroid plexus of live B6 male mice (in vivo, ex vivo NIR imaging of brain)
T1 sequence (P35846 25-232): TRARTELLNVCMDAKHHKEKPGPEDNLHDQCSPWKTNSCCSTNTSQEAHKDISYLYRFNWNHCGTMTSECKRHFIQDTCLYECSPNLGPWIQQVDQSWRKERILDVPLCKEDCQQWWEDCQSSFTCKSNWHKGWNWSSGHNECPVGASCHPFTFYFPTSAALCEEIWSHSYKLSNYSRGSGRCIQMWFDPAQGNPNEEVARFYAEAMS
Text: Corresponding ventral side of the spinal cords are shown to the left of each brain. […] Green fluorescence indicates OTL38 signal. […] In the middle column (OTL38+Fol-Glu, n=4) minimal uptake is observed. In the far-right corner, Control (non-injected, n=1), no signal is observed. FIG. 9 is a graph of mean fluorescent intensity vs. time for CSF and blood. n=1-4 rats/timepoint.
B6 male mice were given an intravenous tail injection of a folate-fluorescent near infrared (NIR) dye conjugate (i.e., OTL38) and imaged. […] Corresponding ventral side of the spinal cords are shown to the left of each brain. […] Green fluorescence indicates OTL38 signal. […] In the middle column (OTL38+Fol-Glu, n=4) minimal uptake is observed. In the far right corner, Control (non-injected, n=1), no signal is observed.

eye [3] = conditions: mouse, in vivo
Procedure: Given the extensive time that OTL38 remained in the eyes, signal in the presence of the folate competitor folate-glucosamine (Fol-Glc) was tested. Healthy, wild-type mice were injected with 10 nmols OTL38. Some mice were subsequently injected with Fol-Glc. All mice were subsequently sacrificed and examined in comparison to noninjected mice.

eye [4] = conditions: rat, in vivo
Procedure: An adult male Sprague Dawley rat was intravenously injected with OTL38 and imaged 24 hours later. […] Red and green colors indicate signal from the dye, with red showing the most intense regions.

[5] = system: rats with cortex laceration of the left hemisphere; test: FRES uptake in cortex laceration: NIR imaging of the cortex; format: in vivo, Sprague Dawley rats; conditions: injected seven days after cortex laceration, brains removed next day
Procedure: Adult male Sprague Dawley rats were given brain injuries by cortex laceration of the left hemisphere using a small ophthalmic knife. Seven days after injury, the rats were injected with OTL38. The brains were removed the next day, and the cortexes were imaged.
FIGS. 13A-13B show a precise surface laceration injury in the cortex of the left hemisphere of the brain. FIG. 13A is a cartoon indicating the area of injury (blue circle) and the area imaged (blue rectangle). […] The right hemisphere cortex served as an internal control (uninjured, no signal).
Choroid plexus cells in the ventricles produce CSF and are the site of FRES release into the subarachnoid space, where the brain and spinal cord continue to be perfused. The 4th ventricle and lateral recess contain choroid plexus cells and are the site of outflow for newly produced CSF. The intense signal below the cerebellum (blue arrow) is a result of concentrated choroid plexus cells and FRES/new CSF production and entry for CNS perfusion. […] The opposite hemisphere represents an internal control with no areas of enhanced signal.

[6] = Persistence of folate conjugate: NIR signal in blood and CSF over time; format: in vivo, Sprague Dawley rats; conditions: rats
Procedure: Adult male Sprague Dawley rats were injected with OTL38. Blood and cerebrospinal fluid (CSF) were then extracted at the same time at various timepoints and imaged. […] The data also indicate that the exposure of the CNS to the payload is extended over time.
FIG. 9 is a graph of mean fluorescent intensity vs. time for CSF and blood. n=1-4 rats/timepoint.

[7] = system: rats with controlled cortical impact (CCI) injuries; test: FRES uptake in controlled cortical impact (CCI) injury: NIR imaging of the cortex surface; format: in vivo, Sprague Dawley rats; conditions: intravenous injection ten days after CCI injury, imaged next day
Text: Adult male Sprague Dawley rats were given moderate grade controlled cortical impact (CCI) injuries. This injury represents concussion of the brain cortex, which is a more common injury in humans than laceration of the brain cortex. The impactor was circular and 6 mm in diameter. The rats were intravenously injected with OTL38 ten days after injury. The next day the rats were sacrificed, and the surfaces of the cortexes were imaged. […] The yellow arrow points to signal on the dorsal surface of the spinal cord.

[8] = system: folate receptor-positive cells; test: FRES uptake in spinal cord contusion injury (SCI): ex vivo NIR imaging of spinal cords; design: species or system Sprague Dawley rats; conditions: SCI rats
Procedure: Adult male Sprague Dawley rats were given a moderate grade spinal cord contusion injury (SCI). The rats were injected with OTL38 or simultaneously with OTL38 and Fol-Glu on day 7 after injury. On day 8, the spinal cords were removed and imaged for NIR signal.
NR signal is represented by green and red colors, with red showing areas of high intensity. Blue arrows point to the epicenter of the SCI. “R” indicates the rostral portion of the spinal cord.

| Molecule | NIR signal in the spinal cords [1] | NIR signal in the choroid plexus, co-injected with Fol-Glu ([2]; mice co-injected with OTL38 and folate-glucosamine conjugate (Fol-Glu), competitor for folate receptors) | NIR signal in the choroid plexus ([2]; mice, intravenous tail injection, 24 hours after injection) | OTL38 signal (mean fluorescence intensity) in eyes after administration of Fol-Glc (eye [3]) | Uptake in the retina, eye slices (eye [4]) | NIR signal at the eye, live imaging (eye [4]; iv) | NIR signal around the choroid plexus [5] | NIR signal at the cortex injury ([5]; uninjured right hemisphere no signal) | NIR signal in the blood relative to that of the CSF ([6]; four hours post-injection and all subsequent timepoints) | NIR signal in the blood relative to that of the CSF ([6]; two hours post-injection, blood exceeded CSF) | NIR signal at the CCI injury [7] | Mean fluorescence intensity, epicenter vs rostral region ([1]; SCI rat, transverse spinal cord sections, students t-test **p<0.01) | NIR signal in the spinal cords, injected simultaneously with Fol-Glu ([8]; OTL38+Fol-Glu on day 7 after injury, imaged day 8) | NIR signal in the spinal cords ([8]; injected day 7 after injury, spinal cords imaged day 8) |
| --- | --- | --- | --- | --- | --- | --- | --- | --- | --- | --- | --- | --- | --- | --- |
| CC1(C)C(/C=C/C2=C(Cl)C(=C/C=C3/N(CCCCS(=O)(=O)[O-])c4ccc(S(=O)(=O)[O-])cc4C3(C)C)/CCC2)=[N+](CCCCS(=O)(=O)[O-])c2ccc(S(=O)(=O)[O-])cc21.[Na+].[Na+].[Na+] [unconjugated NIR dye] | lack of signal | – | – | – | – | – | – | – | – | – | – | – | – | – |
| OTL38 | Signal was observed | noticeable reduction in signal | Strong signal | reduced | strong OTL38 uptake in the area of the retina | intense red signal at the eye | Increased signal around the choroid plexus | enhanced signal around the injury area | dropped and remained lower than that of the CSF | nearly two-fold | positive targeting of the 6 mm circular injury | significant increase in signal in the epicenter as compared to the rostral region | lack of signal | Strong signal |
